Measured values published in patent US20230295289A1 (INTERVET, published 2023).

T1: cIL-22-His (canine IL-22 with a His Tag) (canine)
T1 construct: also called cILHIS
T1 chain: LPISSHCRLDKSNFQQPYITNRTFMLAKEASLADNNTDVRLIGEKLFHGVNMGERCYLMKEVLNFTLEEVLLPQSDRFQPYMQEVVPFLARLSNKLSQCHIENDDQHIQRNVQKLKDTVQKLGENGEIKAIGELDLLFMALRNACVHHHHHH

B1: canine IL-22BP-FcB fusion protein (canine IL-22BP (IL-22RA2) with canine IgG-B Fc) (Fc fusion)
chain: TQSAYESLKPQRVHFQSRNFHNILHWQPGRACTSNGSVYFVQYKMYGQRQWKNKEDCWGILECFCDLTNETSDIQEPYYGRVRTTSAGIHSGWTMTQRFTPWWETKIDPPIINITQVNGSLLVILHAPSLPYRDQKGKNVSIENYYELLYRVFIINNSLEKEQKVYEGAHRIVEIGALAPHTGYCVVAEMYQPMLDRRSPRSEERCMELPGGGGSGGGGSPKRENGRVPRPPDCPKCPAPEMLGGPSVFIFPPKPKDTLLIARTPEVTCVVVALDPEDPEVQISWFVDGKQMQTAKTQPREEQFAGTYRVVSVLPIGHQDWLKGKQFTCKVNNKALPSPIERTISKARGQAHQPSVYVLPPSREELSKNTVSLTCLIKDFFPPDIDVEWQSNGQQEPESKYRTTPPQLDEDGSYFLYSKLSVDKSRWQRGDTFICAVMHEALHNHYTQESLSHSPG
notes: also called cIL-22BP-Fc fusion protein; canine IL-22BP-Fc fusion protein
B2: canine IL-22RA1-FcB fusion protein (extracellular domain of canine IL-22RA1 with canine IgG-B Fc) (Fc fusion)
chain: AEDTSDLLQYVKFQSSNFENILTWDSGLESAPDVVYSVEYKTYGKKEWLAKEGCQRITRKSCNLTTETGNHTEHYYARVTAVSAGGRSATKMTDRFSSMQQTTIKPPDVTCIPKVRSIQMIVHPTSTPIHAEDGHRLTLEDIFQDLFYRLELQVNHTYQMHLGGKQRDYEFIGLSPDTEFLGTITISVPNFFKESAPYVCRVKTLPDRTWTGGGGSGGGGSPKRENGRVPRPPDCPKCPAPEMLGGPSVFIFPPKPKDTLLIARTPEVTCVVVALDPEDPEVQISWFVDGKQMQTAKTQPREEQFAGTYRVVSVLPIGHQDWLKGKQFTCKVNNKALPSPIERTISKARGQAHQPSVYVLPPSREELSKNTVSLTCLIKDFFPPDIDVEWQSNGQQEPESKYRTTPPQLDEDGSYFLYSKLSVDKSRWQRGDTFICAVMHEALHNHYTQESLSHSPG
notes: also called cIL-22RA1-Fc fusion protein; canine IL-22RA1-Fc fusion protein

Tests used:
[1] = target: canine IL-31RA ECD-10His (canine); assay: ELISA: IL-31RA ECD coated at 10 ug/mL, biotinylated IL-31 titrated 3-fold from 10 ug/mL, HRP-streptavidin
[2] = target: T1, cIL-22-His (canine IL-22 with a His Tag); assay: ELISA: cIL-22-His coated, Fc fusion titrated from 10 ug/mL, anti-dog IgG (Fc)-HRP

canine IL-31RA ECD-10His (canine), sequence (chain, as listed by the source limits assumed): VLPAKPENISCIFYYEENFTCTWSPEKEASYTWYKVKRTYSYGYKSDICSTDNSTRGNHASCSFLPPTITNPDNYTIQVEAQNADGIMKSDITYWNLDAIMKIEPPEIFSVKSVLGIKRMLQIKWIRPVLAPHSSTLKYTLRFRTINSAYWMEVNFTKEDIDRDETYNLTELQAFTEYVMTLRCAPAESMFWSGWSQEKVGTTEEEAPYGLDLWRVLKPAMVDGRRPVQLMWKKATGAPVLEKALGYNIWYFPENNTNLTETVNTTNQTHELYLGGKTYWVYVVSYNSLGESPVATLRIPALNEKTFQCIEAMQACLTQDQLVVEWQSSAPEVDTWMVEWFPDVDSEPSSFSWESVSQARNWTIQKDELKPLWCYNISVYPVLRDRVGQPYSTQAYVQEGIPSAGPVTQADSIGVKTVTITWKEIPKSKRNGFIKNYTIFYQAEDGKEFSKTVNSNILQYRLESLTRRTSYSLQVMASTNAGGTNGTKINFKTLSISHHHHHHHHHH

EC50 [1] [µg/mL] | binding result [2] | Molecule
0.368 | – | biotinylated canine IL-31 (ligand)
– | binds | B1
– | binds | B2
